# From patent US20170044545, “APTAMER FOR BONDING TO AUTOTAXIN AND INHIBITING BIOLOGICAL ACTIVITY OF AUTOTAXIN, AND USE FOR SAME” (RIBOMIC INC., published 2017)
# Target: T1, Autotaxin (ENPP2, NPP2) (Homo sapiens, UniProt Q13822 Q13822:36-863)
# Assay: SPR
row,Binder,binding result
1,"UCUGAGGGAACAGGUUUUGCUCCUCGGA (ssRNA, 2'-F pyrimidines, 2'-OH purines) [SEQ 37]",no binding
2,"UCUGAGGGAAACAGGUUUGCUCCUCGGA (ssRNA, 2'-F pyrimidines, 2'-OH purines) [SEQ 36]",no binding
3,"UCUGAGGGAAGCAGGUUUUGCUCCUCGGA (ssRNA, 2'-F pyrimidines, 2'-OH purines) [SEQ 35]",no binding
4,"UCUGAGGGAUACAGGUAUUGCUCCUCGGA (ssRNA, 2'-F pyrimidines, 2'-OH purines) [SEQ 27]",no binding
5,"UCUGAGGGAAUCAGGAUUUGCUCCUCGGA (ssRNA, 2'-F pyrimidines, 2'-OH purines) [SEQ 28]",no binding

# Target: T1, Autotaxin (ENPP2, NPP2)
# Assay: inhibition
row,Binder,IC50 [nM]
1,"UCUGAGGGAAACAGGUUUUGCUCCUCGGA (mixed, as 16(21) with dC26) [SEQ 16(26)]",2.1
2,"UCUGAGGGAAACAGGUUUUGCUCCUCGGA (mixed, as 16(4) with dG14) [SEQ 16(5)]",6.7
3,"UCUGAGGGAAACAGGUUUUGCUCCUCGGA (ssRNA, as 16(4) with PS at A10) [SEQ 16(7)]",7.3
4,"UCUGAGGGAAACAGGUUUUGCUCCUCGGA (ssRNA, as 16(1) + 5' and 3' idT) [SEQ 16(3)]",10
5,"UCUGAGGGAAACAGGUUUUGCUCCUCGGA (ssRNA, as 16(4) with 5' 80 kDa PEG (GL2-800TS)-ssH linker instead of 5' idT) [SEQ 16(9)]",32
6,"UCUGAGGGAAACAGGUUUUGCUCCUCGGA (mixed, as 16(4) with dG8) [SEQ 16(14)]",6.3
7,"UCUGAGGGAAACAGGUUUUGCUCCUCGGA (mixed, as 16(21) with dC24) [SEQ 16(28)]",2.7
8,"UCUGAGGGAAACAGGUUUUGCUCCUCGGA (mixed, as 16(21) with PS at A10) [SEQ 16(22)]",0.5
9,"UCUGAGGGAAACAGGUUUUGCUCCUCGGA (ssRNA, as 16(2) + 5' and 3' idT (G14 printed lower case, probably typo)) [SEQ 16(4)]",17
10,"UCUGAGGGAACAGGUUUUGCUCCUCGGA (ssRNA, 2'-F pyrimidines, 2'-OH purines) [SEQ 37]",720
11,"UCUGAGGGAAACAGGUUUUGCUCCUCGGA (mixed, as 16(4) with dT1 dC2 dT3) [SEQ 16(10)]",21
12,"UCUGAGGGAAACAGGUUUUGCUCCUCGGA (ssRNA, 2'-F all pyrimidines and G8; 2'-OMe G4 A5 G6 G7 A9 A11 A13 G20 G27 G28 A29; 2'-OH A10 G14 G15) [SEQ 16(2)]",22
13,"UCUGAGGGAAACAGGUUUUGCUCCUCGGA (mixed, as 16(21) with 5' 40 kDa PEG (GL2-400GS2)-ssH linker instead of 5' idT) [SEQ 16(24)]",7.4
14,"UCUGAGGGAAACAGGUUUUGCUCCUCGGA (mixed, 2'-F all pyrimidines; 2'-OMe G4 A5 G6 G7 A9 A11 A13 G20 G27 G28 A29; 2'-OH A10; dG8 dG14 dG15; 5' and 3' idT) [SEQ 16(21)]",2.2
15,"GGGAAACAGGUUUUGCUCC (ssRNA, 2'-F pyrimidines, 2'-OH purines) [SEQ 22]",950
16,"UCUGAGGGAAACAGGUUUUGCUCCUCGGA (mixed, as 16(4) with dG14 dG15) [SEQ 16(6)]",5.9
17,"UCUGAGGGAAACAGGUUUUGCUCCUCGGA (mixed, as 16(4) with dC12) [SEQ 16(20)]",44

row,Binder,IC50 [nM]
1,"UCUGAGGGAAACAGGUUUUGCUCCUCGGA (mixed, as 16(4) with dT16) [SEQ 16(19)]",51
2,"UCUGAGGGAAACAGGUUUUGCUCCUCGGA (mixed, as 16(4) with dT19) [SEQ 16(16)]",45
3,"UCUGAGGGAAACAGGUUUUGCUCCUCGGA (mixed, as 16(4) with dC23 dC24) [SEQ 16(12)]",37
4,"UCUGAGGGAAACAGGUUUUGCUCCUCGGA (mixed, as 16(21) with dT1 dC2 dT3 dC23 dC24 dC26) [SEQ 16(32)]",1.4
5,"UCUGAGGGAAACAGGUUUUGCUCCUCGGA (mixed, as 16(4) with dC21) [SEQ 16(15)]",77
6,"UCUGAGGGAAACAGGUUUUGCUCCUCGGA (mixed, as 16(4) with dT17) [SEQ 16(18)]",29
7,"UCUGAGGGAAACAGGUUUUGCUCCUCGGA (mixed, as 16(22) with ssH linker instead of 5' idT) [SEQ 16(31)]",0.8
8,"UCUGAGGGAAACAGGUUUUGCUCCUCGGA (mixed, as 16(21) with ssH linker instead of 5' idT) [SEQ 16(30)]",4.4
9,"UCUGAGGGAAACAGGUUUUGCUCCUCGGA (mixed, as 16(21) with dT1 dC2 dT3) [SEQ 16(25)]",2.3
10,"UCUGAGGGAAACAGGUUUUGCUCCUCGGA (mixed, as 16(4) with dT18) [SEQ 16(17)]",46
11,"UCUGAGGGAAACAGGUUUUGCUCCUCGGA (mixed, as 16(4) with dT25 dC26) [SEQ 16(11)]",27
12,"UCUGAGGGAAACAGGUUUUGCUCCUCGGA (mixed, as 16(4) with dT22) [SEQ 16(13)]",52
13,"UCUGAGGGAAACAGGUUUUGCUCCUCGGA (mixed, as 16(21) with dT25) [SEQ 16(27)]",3.2
14,"UCUGAGGGAAACAGGUUUUGCUCCUCGGA (mixed, as 16(21) with dC23) [SEQ 16(29)]",3.3
15,"UCUGAGGGAAACAGGUUUUGCUCCUCGGA (ssRNA, as 16(4) with 5' 40 kDa PEG (GL2-400TS)-ssH linker instead of 5' idT) [SEQ 16(8)]",42
16,"UCUGAGGGAAACAGGUUUUGCUCCUCGGA (ssRNA, 2'-F all pyrimidines; 2'-OMe G4 A5 G6 G7 G27 G28 A29; other purines 2'-OH) [SEQ 16(1)]",17

# Target: T1, Autotaxin (ENPP2, NPP2)
# Assay: SPR; not more than 10% of SEQ 4
row,Binder,binding result
1,"GGGAAACAGGUUUUGCUCC (ssRNA, 2'-F pyrimidines, 2'-OH purines) [SEQ 22]",no binding
2,"GGAAACAGGUUUUGCUC (ssRNA, 2'-F pyrimidines, 2'-OH purines) [SEQ 23]",no binding
3,"SEQ 9 clone (ssRNA, 2'-F pyrimidines, 2'-OH purines) RNA: GGGUGGCAACAGGACAUGGAACGCGCCCCAACUGCUUGAAACUGGUUUUGCUGAGCAGUGAUGUGAGAUGCGUCUUCGUAC",no binding

# Target: T1, Autotaxin (ENPP2, NPP2)
# Assay: inhibition; NPP2 assay, pNP-TMP substrate, solution A (Ca, Mg), 37 C
row,Binder,IC50 [nM]
1,"UCUGAGGGAAACAGGUUUUGCUCCUCGGA (mixed, dT1; 2'-deoxy G8,G14,G15,C23,C26; 2'-OMe C2,U3,G4,A5,G6,G7,A9,A11,A13,G20,C21,U22,C24,U25,G27,G28,A29; 2'-OH A10 with PS; other pyrimidines 2'-F; 5' 80 kDa PEG (GL2-800GS2)-ssH linker; 3' idT) [SEQ 16(67)]",0.6
2,"UCUGAGGGAAACAGGUUUUGCUCCUCGGA (mixed, dT1; 2'-deoxy G8,G14,G15,C23,C26; 2'-OMe G4,A5,G6,G7,A9,A11,A13,U17,G20,G27,G28,A29; 2'-OH A10 with PS; other pyrimidines 2'-F; 5' and 3' idT) [SEQ 16(61)]",23
3,"UCUGAGGGAAACAGGUUUUGCUCCUCGGA (mixed, dT1; 2'-deoxy G8,G14,G15,C23,C26; 2'-OMe C2,U3,G4,A5,G6,G7,A9,A11,A13,G20,U22,C24,U25,G27,G28,A29; 2'-OH A10 with PS; other pyrimidines 2'-F; 5' 40 kDa PEG (GL2-400GS2)-ssH linker; 3' idT) [SEQ 16(66)]",0.7
4,"UCUGAGGGAAACAGGUUUUGCUCCUCGGA (mixed, dT1; 2'-deoxy G8,G14,G15,C23,C26; 2'-OMe G4,A5,G6,G7,A9,A11,A13,G20,C24,U25,G27,G28,A29; 2'-OH A10 with PS; other pyrimidines 2'-F; 5' and 3' idT) [SEQ 16(56)]",0.2
5,"UCUGAGGGAAACAGGUUUUGCUCCUCGGA (mixed, dT1; 2'-deoxy G8,G14,G15,C23,C26; 2'-OMe G4,A5,G6,G7,A9,A11,A13,G20,G27,G28,A29; 2'-OH A10 with PS; other pyrimidines 2'-F; 5' 80 kDa PEG (GL4-800GS2)-ssH linker; 3' idT) [SEQ 16(64)]",1.3
6,"UCUGAGGGAAACAGGUUUUGCUCCUCGGA (mixed, 2'-deoxy G8,G14,G15,C23,C26; 2'-OMe G4,A5,G6,G7,A9,A11,A13,G20,G27,G28,A29; 2'-OH A10 with PS; other pyrimidines 2'-F; 5' 80 kDa PEG (GL2-800GS2)-ssH linker; 3' idT) [SEQ 16(51)]",2.8
7,"UCUGAGGGAAACAGGUUUUGCUCCUCGGA (mixed, dT1; 2'-deoxy G8,G14,G15; 2'-OMe G4,A5,G6,G7,A9,A11,A13,G20,G27,G28,A29; 2'-OH A10; other pyrimidines 2'-F; 5' 80 kDa PEG (GL2-800GS2)-ssH linker; 3' idT) [SEQ 16(52)]",9.4
8,"UCUGAGGGAAACAGGUUUUGCUCCUCGGA (mixed, dT1; 2'-deoxy G8,G14,G15,C23,C26; 2'-OMe G4,A5,G6,G7,A9,A11,A13,U16,G20,G27,G28,A29; 2'-OH A10 with PS; other pyrimidines 2'-F; 5' and 3' idT) [SEQ 16(59)]",16
9,"UCUGAGGGAAACAGGUUUUGCUCCUCGGA (mixed, dT1; 2'-deoxy G8,G14,G15,C23,C26; 2'-OMe G4,A5,G6,G7,A9,A11,A13,U18,G20,G27,G28,A29; 2'-OH A10 with PS; other pyrimidines 2'-F; 5' and 3' idT) [SEQ 16(62)]",23
10,"UCUGAGGGAAACAGGUUUUGCUCCUCGGA (mixed, dT1; 2'-deoxy G8,G14,G15,C23,C26; 2'-OMe G4,A5,G6,G7,A9,A11,A13,G20,U22,G27,G28,A29; 2'-OH A10 with PS; other pyrimidines 2'-F; 5' and 3' idT) [SEQ 16(57)]",0.3
11,"UCUGAGGGAAACAGGUUUUGCUCCUCGGA (mixed, dT1; 2'-deoxy G8,G14,G15,C23,C26; 2'-OMe G4,A5,G6,G7,A9,A11,A13,U19,G20,G27,G28,A29; 2'-OH A10 with PS; other pyrimidines 2'-F; 5' and 3' idT) [SEQ 16(60)]",23
12,"UCUGAGGGAAACAGGUUUUGCUCCUCGGA (mixed, dT1; 2'-deoxy G8,G14,G15,C23,C26; 2'-OMe G4,A5,G6,G7,A9,A11,A13,G20,G27,G28,A29; 2'-OH A10 with PS; other pyrimidines 2'-F; 5' 40 kDa PEG (GL2-400GS2)-ssH linker; 3' idT) [SEQ 16(63)]",0.8
13,"UCUGAGGGAAACAGGUUUUGCUCCUCGGA (mixed, dT1; 2'-deoxy G8,G14,G15,C23,C26; 2'-OMe G4,A5,G6,G7,A9,A11,A13,G20,C21,G27,G28,A29; 2'-OH A10 with PS; other pyrimidines 2'-F; 5' and 3' idT) [SEQ 16(58)]",0.6
14,"UCUGAGGGAAACAGGUUUUGCUCCUCGGA (mixed, dT1; 2'-deoxy G8,G14,G15; 2'-OMe G4,A5,G6,G7,A9,A11,A13,G20,G27,G28,A29; 2'-OH A10 with PS; other pyrimidines 2'-F; 5' 80 kDa PEG (GL2-800GS2)-ssH linker; 3' idT) [SEQ 16(53)]",2.7
15,"UCUGAGGGAAACAGGUUUUGCUCCUCGGA (mixed, 2'-deoxy G8,G14,G15,C23,C26; 2'-OMe G4,A5,G6,G7,A9,A11,A13,G20,G27,G28,A29; 2'-OH A10; other pyrimidines 2'-F; 5' 80 kDa PEG (GL2-800GS2)-ssH linker; 3' idT) [SEQ 16(50)]",12
16,"UCUGAGGGAAACAGGUUUUGCUCCUCGGA (mixed, dT1,dC2,dT3; 2'-deoxy G8,G14,G15,C23,C24,C26; 2'-OMe G4,A5,G6,G7,A9,A11,A13,G20,G27,G28,A29; 2'-OH A10 with PS; other pyrimidines 2'-F; 5' 80 kDa PEG (GL2-800GS2)-ssH linker; 3' idT) [SEQ 16(54)]",2.3
